The text below walks through data of article PMC3756332 (Scientific Reports, 2013).

The test deals with T1, rabbit cytochrome P450 2B4 (rabbit, UniProt P00178 1-491).
T1 sequence (looked up): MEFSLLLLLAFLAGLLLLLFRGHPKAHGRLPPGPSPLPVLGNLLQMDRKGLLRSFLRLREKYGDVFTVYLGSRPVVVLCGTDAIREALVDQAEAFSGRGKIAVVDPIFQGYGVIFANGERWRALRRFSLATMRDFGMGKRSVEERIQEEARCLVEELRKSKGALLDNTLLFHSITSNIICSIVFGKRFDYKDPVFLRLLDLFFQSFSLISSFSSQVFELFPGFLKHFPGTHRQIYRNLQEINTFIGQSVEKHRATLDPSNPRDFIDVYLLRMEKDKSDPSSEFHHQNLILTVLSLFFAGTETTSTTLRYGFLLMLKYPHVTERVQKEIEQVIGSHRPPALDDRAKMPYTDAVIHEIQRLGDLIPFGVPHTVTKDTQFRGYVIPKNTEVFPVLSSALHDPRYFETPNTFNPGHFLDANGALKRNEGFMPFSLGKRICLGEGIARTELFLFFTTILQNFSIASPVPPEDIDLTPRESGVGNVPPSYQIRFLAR
The test is described as follows: type I spectral change.

B1: rabbit cytochrome b5 (natural protein, UniProt P00169 1-134, looked up)
chain: MAAQSDKDVKYYTLEEIKKHNHSKSTWLILHHKVYDLTKFLEEHPGGEEVLREQAGGDATENFEDVGHSTDARELSKTFIIGELHPDDRSKLSKPMETLITTVDSNSSWWTNWVIPAISALIVALMYRLYMADD
modifications: uniformly 15N-labeled (in the NMR experiments)
Turning to B1, the binding result is reported as “binds”.
